Assay results: article PMC7954794, “Protein context shapes the specificity of SH3 domain-mediated interactions in vivo” (Nature Communications, 2021)

Legend:
Assay type in all cases: cell-based, Saccharomyces cerevisiae
ABP1 = test: DHFR-PCA on solid medium, bait ABP1 (Fig. 1B); details: bait ABP1, label = prey; 2-4 replicates
Excerpt: (§1) Supplement 41467_2021_21873_MOESM8_ESM.xlsx, sheet "Fig1B" | column: medsize; medrep; Ratio; Score

BEM1-1 = test: DHFR-PCA on solid medium, bait BEM1-1 (Fig. 1B); details: bait BEM1-1, label = prey; for medrep (log2 median colony size normalized to plate background, PCA score): 2-8 replicates
Excerpt: as §1

BZZ1-1 = test: DHFR-PCA on solid medium, bait BZZ1-1 (Fig. 1B); details: bait BZZ1-1, label = prey; 4 replicates
Excerpt: Supplement 41467_2021_21873_MOESM8_ESM.xlsx, sheet "Fig1B" | column: medsize; medrep; Score

[1] = tested on: 575 putative partners (preys) of 22 WT SH3-containing proteins; test: DHFR-PCA on solid medium, WT and SH3-deleted baits (Fig. 1B); design: key to Score: 0: SH3-independent; 1: SH3-dependent PPIs; 2: SH3-inhibited PPIs; details: for medrep (log2 median colony size normalized to plate background, PCA score): bait SLA1-3, DHFR-PCA, label = prey, Replicates 4 (2 for YCR009C, YDR388W, YIL033C); for Score: bait SLA1-3, label = prey
Procedure, shortened: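 In S. cerevisiae, 22 SH3-containing baits fused genomically to DHFR F[1,2], either WT or with each SH3 replaced via CRISPR by a poly-Gly/Ser linker, screened against 575 DHFR F[3] preys plus 40 negative controls in 1536 arrays, preys duplicated at randomized positions.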

BOI2 = test: DHFR-PCA on solid medium, bait BOI2 (Fig. 1B); details: bait BOI2, label = prey; 3-8 replicates
Excerpt: as §1

BBC1 = test: DHFR-PCA on solid medium, bait BBC1 (Fig. 1B); details: bait BBC1, label = prey; 2-4 replicates
Excerpt: as §1

BEM1-2 = test: DHFR-PCA on solid medium, bait BEM1-2 (Fig. 1B); details: bait BEM1-2, label = prey; 2-8 replicates
Excerpt: as §1

BUD14 = test: DHFR-PCA on solid medium, bait BUD14 (Fig. 1B); details: bait BUD14, label = prey; for medrep (log2 median colony size normalized to plate background, PCA score): 4 replicates
Excerpt: as §1

BOI1 = test: DHFR-PCA on solid medium, bait BOI1 (Fig. 1B); details: bait BOI1, label = prey; 3-8 replicates
Excerpt: as §1

Lsb3 = test: Deep mutational scanning of Abp1 SH3, Abp1-Lsb3 DHFR-PCA (DMS score); details: for LSB3_MTX2 (frequency normalized to the reference condition): Abp1 SH3 amino acid mutation; for LSB3_MTX2 (frequency normalized to the reference condition) / LSB3_MTX2 (frequencies normalized to the reference condition): MTX2; for LSB3_MTX2 (frequencies normalized to the reference condition) / LSB3_MTX2: Abp1-Lsb3 DHFR-PCA, frequencies normalized to the reference condition; for LSB3_MTX2: amino acid level
Procedure, shortened: (§2)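 Saturation mutagenesis (NNN per codon) of Abp1 SH3, reintegrated at the genomic locus in yeast and mated with Hua2- or Lsb3-DHFR F[3] prey strains. Diploids underwent two rounds of liquid DHFR-PCA selection (72 h each, 30 °C), in biological duplicate. Mutant abundance was tracked by Illumina sequencing against the pre-selection reference.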

Hua2 = test: Deep mutational scanning of Abp1 SH3, Abp1-Hua2 DHFR-PCA (DMS score); details: for HUA2_MTX2 (frequency normalized to the reference condition): Abp1 SH3 amino acid mutation; for HUA2_MTX2 (frequency normalized to the reference condition) / HUA2_MTX2 (frequencies normalized to the reference condition): MTX2; for HUA2_MTX2 (frequencies normalized to the reference condition) / HUA2_MTX2: Abp1-Hua2 DHFR-PCA, frequencies normalized to the reference condition; for HUA2_MTX2: amino acid level
Procedure, shortened: as §2

Hua2 and Lsb3 [2] = test: Deep mutational scanning quadrant of Abp1 SH3 (Hua2 and Lsb3 DMS scores); details: class of mutation by HUA2 and LSB3 DMS scores
Hua2 and Lsb3 [3] = test: Deep mutational scanning of Abp1 SH3: combined class (quadrant) from Abp1-Hua2 and Abp1-Lsb3 DHFR-PCA; details: class by DMS scores with Hua2 and Lsb3 (Neutral, Dest. both, Dest. Hua2, Dest. Lsb3)
Hua2 and Lsb3 [4] = test: Deep mutational scanning of Abp1 SH3, quadrant classification from Hua2 and Lsb3 DMS scores; details: class from hua2sc and lsb3sc
[5] = only significant differences showed, PPIs completely lost have a ratio of 0.1 and the gained PPIs 2.5
[6] = frequencies scaled to the synonymous mutation distribution, LSB3 prey
[7] = frequencies scaled to the synonymous mutation distribution, HUA2 prey
[8] = Lsb3, frequencies scaled to the synonymous mutation distribution (DMS score)
[9] = Hua2, frequencies scaled to the synonymous mutation distribution (DMS score)
[10] = Abp1-Lsb3, frequencies scaled to the synonymous mutation distribution (DMS score)
[11] = Abp1-Hua2, frequencies scaled to the synonymous mutation distribution (DMS score)

B1: YHR064C (protein, UniProt P38788 1-538, looked up)
Ribosome-associated complex …: MSSPVIGITFGNTSSSIAYINPKNDVDVIANPDGERAIPSALSYVGEDEYHGGQALQQLIRNPKNTIINFRDFIGLPFDKCDVSKCANGAPAVEVDGKVGFVISRGEGKEEKLTVDEVVSRHLNRLKLAAEDYIGSAVKEAVLTVPTNFSEEQKTALKASAAKIGLQIVQFINEPSAALLAHAEQFPFEKDVNVVVADFGGIRSDAAVIAVRNGIFTILATAHDLSLGGDNLDTELVEYFASEFQKKYQANPRKNARSLAKLKANSSITKKTLSNATSATISIDSLADGFDYHASINRMRYELVANKVFAQFSSFVDSVIAKAELDPLDIDAVLLTGGVSFTPKLTTNLEYTLPESVEILGPQNKNASNNPNELAASGAALQARLISDYDADELAEALQPVIVNTPHLKKPIGLIGAKGEFHPVLLAETSFPVQKKLTLKQAKGDFLIGVYEGDHHIEEKTLEPIPKEENAEEDDESEWSDDEPEVVREKLYTLGTKLMELGIKNANGVEIIFNINKDGALRVTARDLKTGNAVKGEL
ABP1
  medrep (log2 median colony size normalized to plate background, PCA score): 4.8359
BEM1-1
  medrep (log2 median colony size normalized to plate background, PCA score): 1.993
BEM1-1; [5]
  Ratio (SH3-deleted/WT medrep): 0.1
BZZ1-1
  medrep (log2 median colony size normalized to plate background, PCA score): 2.391
[1]
  medrep (log2 median colony size normalized to plate background, PCA score): 4.584
  Score: 0
BOI2
  medrep (log2 median colony size normalized to plate background, PCA score): 2.6006
BBC1
  medrep (log2 median colony size normalized to plate background, PCA score): 4.121
BEM1-2
  medrep (log2 median colony size normalized to plate background, PCA score): 1.993
BUD14
  medrep (log2 median colony size normalized to plate background, PCA score): 1.869
BUD14; [5]
  Ratio (SH3-deleted/WT medrep): 0.1

B2: YIL033C (protein, UniProt P07278 2-416, looked up)
cAMP-dependent protein kinase …: VSSLPKESQAELQLFQNEINAANPSDFLQFSANYFNKRLEQQRAFLKAREPEFKAKNIVLFPEPEESFSRPQSAQSQSRSRSSVMFKSPFVNEDPHSNVFKSGFNLDPHEQDTHQQAQEEQQHTREKTSTPPLPMHFNAQRRTSVSGETLQPNNFDDWTPDHYKEKSEQQLQRLEKSIRNNFLFNKLDSDSKRLVINCLEEKSVPKGATIIKQGDQGDYFYVVEKGTVDFYVNDNKVNSSGPGSSFGELALMYNSPRAATVVATSDCLLWALDRLTFRKILLGSSFKKRLMYDDLLKSMPVLKSLTTYDRAKLADALDTKIYQPGETIIREGDQGENFYLIEYGAVDVSKKGQGVINKLKDHDYFGEVALLNDLPRQATVTATKRTKVATLGKSGFQRLLGPAVDVLKLNDPTRH
ABP1
  medrep (log2 median colony size normalized to plate background, PCA score): 3.25
BEM1-1
  medrep (log2 median colony size normalized to plate background, PCA score): 1.8558
BOI1
  medrep (log2 median colony size normalized to plate background, PCA score): 2.0471
BZZ1-1
  medrep (log2 median colony size normalized to plate background, PCA score): 2.099
[1]
  medrep (log2 median colony size normalized to plate background, PCA score): 2.8
  Score: 0
BOI2
  medrep (log2 median colony size normalized to plate background, PCA score): 1.723
BBC1
  medrep (log2 median colony size normalized to plate background, PCA score): 2.137
BEM1-2
  medrep (log2 median colony size normalized to plate background, PCA score): 1.8558
BUD14
  medrep (log2 median colony size normalized to plate background, PCA score): 1.967

B3: ABP1 A3A (protein, UniProt P15891 2-592, looked up)
Actin-binding protein: ALEPIDYTTHSREIDAEYLKIVRGSDPDTTWLIISPNAKKEYEPESTGSSFHDFLQLFDETKVQYGLARVSPPGSDVEKIIIIGWCPDSAPLKTRASFAANFAAVANNLFKGYHVQVTARDEDDLDENELLMKISNAAGARYSIQTSSKQQGKASTPPVKKSFTPSKSPAPVSKKEPVKTPSPAPAAKISSRVNDNNDDDDWNEPELKERDFDQAPLKPNQSSYKPIGKIDLQKVIAEEKAKEDPRLVQKPTAAGSKIDPSSDIANLKNESKLKRDSEFNSFLGTTKPPSMTESSLKNDDDKVIKGFRNEKSPAQLWAERKAKQNSGNAETKAEAPKPEVPEDEPEGEPDVKDLKSKFEGLAASEKEEEEMENKFAPPPKKSEPTIISPKPFSKPQEPVKAEEAEQPKTDYKKIGNPLPGMHIEADNEEEPEENDDDWDDDEDEAAQPPLPSRNVASGAPVQKEEPEQEEIAPSLPSRNSIPAPKQEEAPEQAPEEEIEEEAEEAAPQLPSRSSAAPPPPPRRATPEKKPKENPWATAEYDYDAAEDNELTFVENDKIINIEFVDDDWWLGELEKDGSKGLFPSNYVSLGN
modifications: synonymous A3A codon
Lsb3; LSB3 prey
  LSB3_MTX2 (frequency normalized to the reference condition): 1.292
Lsb3; [6]
  lsb3sc (DMS score): -0.2087
Hua2; HUA2 prey
  HUA2_MTX2 (frequency normalized to the reference condition): 1.172
Hua2; [7]
  hua2sc (DMS score): -0.4405
Hua2 and Lsb3 [2]
  quadrant: Neutral

B4: ABP1 N27N (protein, UniProt P15891 2-592, looked up)
Actin-binding protein: B3 Actin-binding protein
modifications: synonymous change N27N in SH3 domain
Lsb3
  LSB3_MTX2 (frequencies normalized to the reference condition): 1.694
Lsb3; [8]
  lsb3sc (DMS score): 0.1932
Hua2 and Lsb3 [3]
  quadrant: Neutral
Hua2
  HUA2_MTX2 (frequencies normalized to the reference condition): 1.61
Hua2; [9]
  hua2sc (DMS score): -0.002773

B5: ABP1 K42K (protein, UniProt P15891 2-592, looked up)
Actin-binding protein: B3 Actin-binding protein
modifications: synonymous codon K42K
Lsb3; [10]
  lsb3sc (DMS score): 0.08611
Lsb3
  LSB3_MTX2: 1.586
Hua2; [11]
  hua2sc (DMS score): -0.1876
Hua2
  HUA2_MTX2: 1.425
Hua2 and Lsb3 [4]
  quadrant: Neutral

B6: ABP1 I25I (protein, UniProt P15891 2-592, looked up)
Actin-binding protein: B3 Actin-binding protein
modifications: synonymous codon change I25
Lsb3
  LSB3_MTX2 (frequencies normalized to the reference condition): 1.319
Lsb3; [8]
  lsb3sc (DMS score): -0.181
Hua2 and Lsb3 [3]
  quadrant: Neutral
Hua2
  HUA2_MTX2 (frequencies normalized to the reference condition): 1.723
Hua2; [9]
  hua2sc (DMS score): 0.1101

B7: ABP1 E29E (protein, UniProt P15891 2-592, looked up)
Actin-binding protein: B3 Actin-binding protein
modifications: synonymous codon change E29E
Lsb3
  LSB3_MTX2 (frequencies normalized to the reference condition): 1.788
Lsb3; [8]
  lsb3sc (DMS score): 0.2879
Hua2 and Lsb3 [3]
  quadrant: Neutral
Hua2
  HUA2_MTX2 (frequencies normalized to the reference condition): 1.834
Hua2; [9]
  hua2sc (DMS score): 0.2208

B8: ABP1 T4T (protein, UniProt P15891 2-592, looked up)
Actin-binding protein: B3 Actin-binding protein
modifications: synonymous T4T codon change
Lsb3; LSB3 prey
  LSB3_MTX2 (frequency normalized to the reference condition): 1.639
Lsb3; [6]
  lsb3sc (DMS score): 0.1386
Hua2; HUA2 prey
  HUA2_MTX2 (frequency normalized to the reference condition): 1.763
Hua2; [7]
  hua2sc (DMS score): 0.1499
Hua2 and Lsb3 [2]
  quadrant: Neutral

B9: ABP1 L37L (protein, UniProt P15891 2-592, looked up)
Actin-binding protein: B3 Actin-binding protein
modifications: synonymous codon change L37L in SH3
Lsb3; [10]
  lsb3sc (DMS score): 0.2222
Lsb3
  LSB3_MTX2: 1.722
Hua2; [11]
  hua2sc (DMS score): -0.0161
Hua2
  HUA2_MTX2: 1.597
Hua2 and Lsb3 [4]
  quadrant: Neutral
